T1: His6-tagged PCNA from Pyrococcus abyssi (Pyrococcus abyssi, UniProt Q9UYX8 1-249)
T1 construct: PCNA, Pyrococcus abyssi; open reading frame optimized and synthesized, in pET28-a(+) with a thrombin-cleavable N-terminal 6xHis tag; PCNA with its His tag kept, captured on the NTA chip for SPR; also called His-tagged PCNA; source: E. coli BL21-CodonPlus (DE3)-RIPL, purified (heat step, HisTrap, heparin, size exclusion); not shown: His6, N-terminal, kept
T1 sequence (looked up): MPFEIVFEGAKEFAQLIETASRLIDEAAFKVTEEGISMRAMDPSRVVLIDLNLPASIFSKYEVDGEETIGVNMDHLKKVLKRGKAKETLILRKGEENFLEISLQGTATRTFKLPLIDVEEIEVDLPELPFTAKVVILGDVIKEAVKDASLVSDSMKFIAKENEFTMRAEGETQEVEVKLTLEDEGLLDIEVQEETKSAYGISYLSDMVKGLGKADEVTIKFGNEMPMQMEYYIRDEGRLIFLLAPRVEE

B1: PCNA (proliferative cell nuclear antigen) from Pyrococcus abyssi (natural protein, UniProt Q9UYX8 1-249, looked up)
chain: T1 sequence (looked up)
notes: PCNA, Pyrococcus abyssi; open reading frame optimized and synthesized, in pET28-a(+) with a thrombin-cleavable N-terminal 6xHis tag; PCNA as used in cryo-EM, crystallisation, BLI (analyte) and primer extension; also called sliding clamp; source: E. coli BL21-CodonPlus (DE3)-RIPL, purified (heat step, HisTrap, heparin, size exclusion)
B2: MBP–iPIP-cPIP fusion (DP2:1196–1270) (domain or fragment, Pyrococcus abyssi, UniProt Q9V2F4 1381-1455, looked up)
chain: ETQLTLIVNPNDICQRLVMARTGEVNKSGLLENLSNGSKKTEKAEKAEKPRKKSDEKPKKKRVISLEEFFSRKSK
notes: C-terminal region of PolD DP2, Pyrococcus abyssi, residues 1196-1270, holding iPIP and cPIP; pIVEX His-MBP-TEV plasmid; TEV-cleavable N-terminal His6-MBP tag, kept for capture on Ni-NTA biosensors; also called His-MBP-fused DP2 construct; source: E. coli BL21-CodonPlus (DE3)-RIPL, purified (HisTrap, heparin, size exclusion; no heat step); not shown: His6, N-terminal, kept; MBP, N-terminal, kept
B3: primer-template duplex (18-mer primer / 25-mer template) (dsDNA)
DNA 1: CGCCGGGCCGAGCCGTGC
DNA 2: AGGTCGTGCACGGCTCGGCCCGGCG
B4: cPIP peptide (12 amino-acid peptide mimicking the DP2 C-terminal PIP-box) (peptide)
peptide: KKRVISLEEFFS
notes: C-terminal PIP-box (cPIP) of PolD DP2, Pyrococcus abyssi; limits worked out from the printed residues V1258, I1259, L1261, F1264; also called canonical PIP-box; source: synthetic peptide (Smart Bioscience)

Data set [1] concerns the target primase (Saccharomyces cerevisiae) (UniProt P10363). To be noted: cited from earlier work.
Data set [2] concerns the molecule itself. The experiment in a line: cryo-EM structure; 0.4 µM PolD (DP1 H451A), 1.2 µM PCNA, 0.7 µM primed DNA duplex (18-mer primer, 7-nt overhang), 0.1 mM dAMPCPP, buffer F (20 mM Na-Hepes pH 8, 0.01 mM NaCl, 2 mM Mg-acetate), 20 min at 4 °C; single-particle cryo-EM, 3.77 Å.
The target in data set [3] is B1. As to the kind of experiment: BLI; Octet RED384; His-MBP-fused DP2 constructs captured on Ni-NTA biosensors (1.5 nm); PCNA or PriS-PriL(1–210) 31.25-2000 nM, 300 s, 25 °C, buffer E (20 mM Na-Hepes pH 8, 0.15 M NaCl) with 0.2 mg/mL BSA; steady-state fit. To be noted: both partners purified.
Data set [4] deals with PolD DP1 (small subunit, exonuclease-deficient);PolD DP2 (large catalytic subunit);PCNA (Pyrococcus abyssi;Pyrococcus …, UniProt Q9V2F3;PDB:6T8H_3;Q9UYX8 1-619;1-1275;1-249, H451A||). The experiment in a line: cryo-EM structure (3.77 A); 2 mM Mg-acetate, 0.1 mM dAMPCPP (incoming nucleotide not seen in the map); Cryo-EM sample: 0.4 uM PolD, 1.2 uM PCNA, 0.7 uM DNA, 20 mM Na-HEPES pH 8, 0.01 mM NaCl (so in the source), 2 mM Mg-acetate, 0.1 mM dAMPCPP, 20 min at 4 C. The settings on record: protein: recombinant;recombinant;recombinant; copies: 1;1;3; 5' overhang 7 nt on template strand (18 bp duplex).
PolD DP1 (small subunit, exonuclease-deficient);PolD DP2 (large catalytic subunit);PCNA, sequence (Q9V2F3 whole entry H451A, one chain of several): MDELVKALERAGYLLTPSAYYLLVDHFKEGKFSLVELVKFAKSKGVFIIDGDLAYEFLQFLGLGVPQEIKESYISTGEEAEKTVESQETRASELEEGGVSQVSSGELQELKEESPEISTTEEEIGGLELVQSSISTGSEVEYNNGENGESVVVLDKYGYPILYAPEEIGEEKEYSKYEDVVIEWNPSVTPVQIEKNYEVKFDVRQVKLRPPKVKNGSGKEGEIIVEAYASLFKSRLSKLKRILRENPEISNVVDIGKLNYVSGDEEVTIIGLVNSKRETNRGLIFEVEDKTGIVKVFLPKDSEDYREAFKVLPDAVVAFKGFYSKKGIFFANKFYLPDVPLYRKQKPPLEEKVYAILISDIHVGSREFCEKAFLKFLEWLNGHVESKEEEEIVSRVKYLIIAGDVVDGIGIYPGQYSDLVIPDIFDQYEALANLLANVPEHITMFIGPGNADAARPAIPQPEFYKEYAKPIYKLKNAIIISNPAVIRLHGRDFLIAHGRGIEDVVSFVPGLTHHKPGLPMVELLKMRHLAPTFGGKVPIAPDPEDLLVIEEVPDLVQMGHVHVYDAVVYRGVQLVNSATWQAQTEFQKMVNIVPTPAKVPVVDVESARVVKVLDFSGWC

The target of data set [5] is T1, His6-tagged PCNA from Pyrococcus abyssi. The experiment in a line: SPR; Biacore T200; ~2000 RU His-tagged PCNA and PriS-PriL(1–210) on an NTA chip, His-tagged MBP as reference; cPIP peptide 0-200 µM, 30 s at 30 µL/min, 25 °C, buffer E with 100 µM EDTA; steady-state fit. To be noted: both partners purified.

primase (Saccharomyces cerevisiae), sequence (P10363 whole entry, chain 1 of 2): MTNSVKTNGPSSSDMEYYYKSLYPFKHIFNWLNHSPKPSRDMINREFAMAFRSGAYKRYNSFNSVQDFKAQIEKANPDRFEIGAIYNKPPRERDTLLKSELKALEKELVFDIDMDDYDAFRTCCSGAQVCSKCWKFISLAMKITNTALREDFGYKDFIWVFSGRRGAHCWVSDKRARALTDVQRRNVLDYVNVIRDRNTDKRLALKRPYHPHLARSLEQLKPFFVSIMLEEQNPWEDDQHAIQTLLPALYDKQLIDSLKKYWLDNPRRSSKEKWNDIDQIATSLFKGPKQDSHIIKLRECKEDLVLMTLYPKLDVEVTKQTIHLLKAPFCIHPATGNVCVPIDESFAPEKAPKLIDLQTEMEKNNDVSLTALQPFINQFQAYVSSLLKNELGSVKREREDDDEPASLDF
primase (Saccharomyces cerevisiae), sequence (P20457 whole entry, chain 2 of 2, further chain): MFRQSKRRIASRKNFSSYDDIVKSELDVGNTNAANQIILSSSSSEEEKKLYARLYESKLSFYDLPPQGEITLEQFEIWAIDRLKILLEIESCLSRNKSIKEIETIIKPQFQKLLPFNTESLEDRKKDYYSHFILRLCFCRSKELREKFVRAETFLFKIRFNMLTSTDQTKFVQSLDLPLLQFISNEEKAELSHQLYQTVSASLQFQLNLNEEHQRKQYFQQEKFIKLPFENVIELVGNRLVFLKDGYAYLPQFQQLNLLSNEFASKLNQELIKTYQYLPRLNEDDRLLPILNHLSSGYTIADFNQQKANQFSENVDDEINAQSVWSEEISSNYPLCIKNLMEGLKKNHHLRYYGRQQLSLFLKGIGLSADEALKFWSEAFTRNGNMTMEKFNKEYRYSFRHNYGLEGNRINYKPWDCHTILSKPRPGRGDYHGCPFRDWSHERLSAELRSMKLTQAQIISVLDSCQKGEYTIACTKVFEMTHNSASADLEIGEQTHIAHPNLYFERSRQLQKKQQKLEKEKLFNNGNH

For the molecule “DNA polymerase alpha C-terminus (from UniProt P13382)”, the Kd (commonly the concentration at which binding is half-saturated) in data set [1] was 245 nM.

For B1, the stoichiometry N (commonly a count of units in the complex or per binding partner) in data set [2] came to 3.

For B2, in data set [3], the Kd was 472 ± 120 nM.

With B3, the binding result in data set [4] is on record as “binds”.

In data set [5], B4 had a Kd of 49000 ± 4000 nM.
